{
  "source": "paper doi:10.1101/2022.05.31.494188",
  "data": [
    {"molecular_target": "Recombinant envelope glycoprotein gp120 from HIV-1 (CM235) (HIV-1 (CM235))", "test": "ELISA", "units": {"EC50": "pM"}, "values": [
      {"substance": "Avaren-Fc produced in glycoengineered ΔXylT/ΔFucT N. benthamiana (AvFc^ΔXF) (Fc fusion)", "EC50": 48},
      {"substance": "Avaren-Fc produced in wild-type N. benthamiana (AvFc^WT) (Fc fusion)", "EC50": 51},
      {"substance": "Aglycosylated Avaren-Fc variant (AvFc^Δgly), N200Q (Fc fusion)", "EC50": 61}
    ]}
  ]
}
